# From the DeepSol protein solubility set
# Assay: soluble on expression in E. coli; label from the status in PepcDB or PDB records
row,Sequence,soluble on expression in E. coli
1,MAHHHHHHMDPPAAFERRYPELGALRLHFDVLDSTQLYCKRNMARLLQNGSLQDDKHMVVVTCNEQTNGIGTRDTKKKQDRMWLSERGNLFTTFVLLWKREDLEKVKYLSQTSTVAVSKTLEHFHLVTQIKWVNDVLVNEKKIAGCLVHLHYLDDFPSLSRYACVMVGIGINITLRDKDNLLGDNYTSVQKELQRDFGSFCSIPSVEDVMDKLILNLHAVFTKLREEGFSSFLDYITPRLLYKDRNVLVDTDGELIAGHLQGLLHDGSLLLLRGENELVRVNTGHLRLG,soluble
2,MAHHHHHHMDRQVINLEEILPFSYTRDVELVPMYCFEVKKEVAKDALNIMKDYINNQLYDKYNHLKRCRKCTDSVQILIGACNHIPFELSQKLIEKMKQENNNDEFNDIIITKIMVSKYAPITRKQYIEWSTYWPLYFRKPDKDILILTKEEINKYIKLLYISIDIGKQFGTCNSGCIITYNDEIIASSGDNIKNHPLHHAPMLAIEQVSYKLRHIWLNKQTEKNNLQKKMKIIHKQQINNRDSLNDHKHENNKSNHNILIDHIPNDQYLCTNFFAFLSHEPCYMCAMALLHSRIKCVIFDKENKNNGALSSQEKLHCIKNLNHHFKVFKTIRG,not soluble
3,MAHHHHHHMEAPAVYCVSDAAASLTMADDWIRGLSRQRHRSMCEVDAVFPVSRTRERTEMDEAETASSYSDSVTSVPTNRLQLHMMHRRRLYKQYAMDLSMWADTHSYYQLMMWCHDHHVFVHPTVEMVRHRSAFREHVFEVKEDVDAFTPLLAIPEDLIIGFKDANTESSDPSASTDDRNNLYDAKREAEFHKLNTGENSNADICQFFFASLGMIVSDLITAKSSPLTDPRHLFAELLSKVPTLQNAPYFDEEVVFDSNETCLADVLLQMIRNYINGGPLVNKVPLHELRWAVSVSLSHSTPLSIGAVRSIGIVPVVHLFPHGGTATNAYVVARTSRDKSAEKMAIFFREKFGYDFQGQANAKWIYVVPERPLKAGEAINLQVMAPVCEKDSEAEQMWRLSCGTVPESYMSSAQASARQEAATRFIVEQGEALWKASRAKRLL,not soluble
4,MAHHHHHHMEGEEVPLVQPFRQHREQCRVKLQEIGPRMTLQLSKVENGFAGGEVIYHRTEKKTLREVQVNASKVRARKTEKAKRRALQDENVQRKRQKREDKLERKHQRREAAAEAQQANPFEVAHGDGDGDGYAAGDEE,not soluble
5,MAHHHHHHMEKDGYTKLSEEEEQQLDNCRACMALTAVFMEEVMKPTEKLQHQLHQQQQQEGSAPRTPKNSDAVRSGERQRLVTNVHDAIDKLCDRVKERNNQVDASYDKGKEERDEKSESTEGGPIWYVSVNTAACEVALEEVSEALAREAFAQLLPERVAGTRGGGPSAVCEQENLCTARLSQHVKSEEEKAKAELEKEMRRQRELSRKNPKETLALQRAVAVGVGIMVIALWLRGRQSAKPEGDVKKD,not soluble
6,MAHHHHHHMENLYFQGMSSFLPEGGCYELLTVIGKGFEDLMTVNLARYKPTGEYVTVRRINLEACSNEMVTFLQGELHVSKLFNHPNIVPYRATFIADNELWVVTSFMAYGSAKDLICTHFMDGMNELAIAYILQGVLKALDYIHHMGYVHRSVKASHILISVDGKVYLSGLRSNLSMISHGQRQRVVHDFPKYSVKVLPWLSPEVLQQNLQGYDAKSDIYSVGITACELANGHVPFKDMPATQMLLEKLNGTVPCLLDTSTIPAEELTMSPSRSVANSGLSDSLTTSTPRPSNGDSPSHPYHRTFSPHFHHFVEQCLQRNPDARPSASTLLNHSFFKQIKRRASEALPELLRPVTPITNFEGSQSQDHSGIFGLVTNLEELEVDDWEF,soluble
7,MAHHHHHHMERFRSEDVAEGAFTLNLDECGASLIELHAPLNGLAFMMQDAVVAQLAMGSTLAGSDAAKAPQDDHDGTTVNFRTLSTSAAGAIDALLSEMSARRVHFVSGVVTDAMLDVEGVTIIDPLPLEPRLNRFQRNMIRLSLTLEQQFFLLAEYLGNTSGGCAHGVIGSGEAAALAVDVWRVAGFCDALVDHLWWRGRCVCGGPFSWRCRWDCAARGVARRCARACRVLGVFTPAR,not soluble
8,MAHHHHHHMFLRPHEINILMNEMKIIYEFKKEYYEIILNENNADDNVIDLFEKNTNKCNIEIKPYDDINSDLLDFDQFKMFNIDKDDIKKKNEDKKDEDRIKYILDKESYNNSIDKLNDNSCDESCYITDDELCKQINNPFDNTYNNKFVVKYKEYFEENSFIVKKGDIYGADFLLYITEQKYAHSLYAVYIIYKHYILRDLIRILRVSHSIKKKVILILWNELNCFNISDTLVYIKSYKYK,soluble
9,MAHHHHHHMGCSGSKNASNPKDGAASKGGKDGKTTADRKVAWERIRCAIPRDKDAESKSRRIELFKRFDTNGTGKLGFREVLDGCYSVLKLDEFTTHLPDIVQRAFDKAKDLGNKVKGVGEEDLVEFLEFRLMLCYIYDIFELTVMFDTMDKDGSLLIELQEFKEALPKLKEWGVDITDATTVFNEIDTNGSGVVTFDEFSCWAVTKKLQVCGDPDGEGNGANEGDGANAGDGVPAAEGSA,soluble
10,MAHHHHHHMGGHGGLNILPQKKWNVYRKDAQYKVHYDEHKIIKEEKDKEIKRKKDEFESTISTLKKNMTKNEDSDNNYNNFYDENGEKKTTTNYCNDHINLFIDEEKELTAKQKKHEEFLIKKGHYIYYDKNFNTQHNSIYDKNKNAQIISDFNKMKLCERDWFLNKKNKNEKTKDNGANFFHIQKDNISEEHNKTENINSDLSLYCNTNNYITHDKKKEKKQMHYHIKKIIKYKQEKDKEKKRKRQGKEKKKPK,not soluble
11,MAHHHHHHMGLKFYVLVFLILCLKNVVKGDKCETEFSKLYPESNSLTGLIYAHTANVHKLSMWVYFIYNHFSSADELIKYLEKTNINTLENSDHTCFARAVTLYLFYYYLKDIKSMLSTDDYQSFFKNKFKDINPLFINDFILILNDKKFMENLDLYIMKESEREHLVIKKNPFLRVLNKASTTTHATYKSNPYFIVGSRVHTPYKDYLGDFNKYTEISVLNYVRDYNFLIYAGSRENYYNSDIAGPARSVNNVISKNKTLGLRKRSSSLALVGTNNNDPIFAYCEKDNKSEYYGTPDDLITSFFSIIKTKMLNSHKTFLRQFDYALFHKTYSIPNLKGFRFLKHLFQKKNLVNFVGMYENHVSTEINFLAEDFVELFDVTMDCYSRQYSNRAAENFKAIRELNVL,not soluble
12,MAHHHHHHMGNKISTEDHIFRLKLKTKELEKLSQRSELEEKKLIGDVKKAIQAGKIELARLYAEKCIRKKNEKVNYLNLSNKLDVLVSRLEGAHRCASLVKDVGVMIPLIQKINAETNAIKIGNDVTKLENIFDEISISSELINDTVQTSSAISAPTEEVDELISKIADEHALKLDGQIGSVHPINKHLEEISNMSERIKNLK,soluble
13,MAHHHHHHMGTLEAQTQGPGSMFITFEGIDGSGKTTQSHLLAEYLSEIYGVNNVVLTREPGGTLLNESVRNLLFKAQGLDSLSELLFFIAMRREHFVKIIKPSLMQKKIVICDRFIDSTIAYQGYGQGIDCSLIDQLNDLVIDVYPDITFIIDVDINESLSRSCKNGYEFADMEFYYRVRDGFYDIAKKNPHRCHVITDKSETYDIDDINFVHLEVIKVLQMV,soluble
14,MAHHHHHHMGTLEAQTQGPGSMQMNMVETEPVQGCRDFPPETMRLRKYLFDVFHSTARKFGFEEYDSPVLESEELYIRKAGEEITEQMFNFITKGGHRVALRPEMTPSLARQLLAKGRSLLLPAKWYSIPQCWRYEAITRGRRREHYQWNMDIIGVKSVSSEVELVCAACTAMQSLGLSSKDVGVKINSRKILQTVVEQAGVSADKFAPVCVIVDKMEKLPREEVVAQLAAIGLESNVVDAITSTLSLKTIDEIAQRIGEEHEAVRELRDFITQIEAYGFGDWVIFDASVVRGLAYYTGIVFEGFDRDGNFRALCGGGRYDNLLTTYGSPTAVPCVGFGFGDCVIVELLNEKKLLPELHHVVDDLVIPFDETMRPHALSILRRLRDAGRSADIVFDKKKVVQAFNYADRIGALRAVLVAPDEWARGEVRVKMLREGAGREEGANERGIVLPVDKIV,soluble
15,MAHHHHHHMGTLEAQTQGPGSMSEPLLLQDRDERGVVTLTLNRPQAFNALSEAMLAALGEAFGTLAEDESVRAVVLAASGKAFCAGHDLKEMRAEPSREYYEKLFARCTDVMLAIQRLPAPVIARVHGIATAAGCQLVAMCDLAVATRDARFAVSGINVGLFCSTPGVALSRNVGRKAAFEMLVTGEFVSADDAKGLGLVNRVVAPKALDDEIEAMVSKIVAKPRAAVAMGKALFYRQIETDIESAYADAGTTMACNMMDPSALEGVSAFLEKRRPEWHTPQPSTA,soluble
16,MAHHHHHHMGTLEAQTQGPGSMSFSNVPAGKDLPQDFNVIIEIPAQSEPVKYEADKALGLLVVDRFIGTGMRYPVNYGFIPQTLSGDGDPVDVLVITPFPLLAGSVVRARALGMLKMTDESGVDAKLVAVPHDKVCPMTANLKSIDDVPAYLKDQIKHFFEQYKALEKGKWVKVEGWDGIDAAHKEITDGVANFKK,soluble
17,MAHHHHHHMGTLEAQTQGPGSMSVRVAINGFGRIGRNILRAIIESGRQDIEVVALNDLGSVETNAHLLRYDSVHGCFPGTVQVVGDAIDIGSSLIKVFAERDPAQLPWKALDIDIALECTGIFTARDKASAHLDAGAKRVLVSAPSEGADLTVVYGVNHQFLSKEHHVISNASCTTNCLAPVAQVLHNTVGIEKGFMTTIHSYTGDQPVLDTMHRDLYRARAAALSMIPTSTGAAKAVGLVLPELKGLLDGVSIRVPTPNVSVVDLTFTAKRSTTIEEINTAIRTAAQGSLKGILDYTDEKLVSCDFNHNPHSAIFHNDQTKVIDGQLCRVLVWYDNEWGFSNRMCDTAVAFAKTI,soluble
18,MAHHHHHHMGTLEAQTQGPGSMTGPLAAARSVAATKSMTAPTVDERPDIKKGLAGVVVDTTAISKVVPQTNSLTYRGYPVQDLAARCSFEQVAFLLWRGELPTDAELALFSQRERASRRVDRSMLSLLAKLPDNCHPMDVVRTAISYLGAEDPDEDDAAANRAKAMRMMAVLPTIVAIDMRRRRGLPPIAPHSGLGYAQNFLHMCFGEVPETAVVSAFEQSMILYAEHGFNASTFAARVVTSTQSDIYSAVTGAIGALKGRLHGGANEAVMHDMIEIGDPANAREWLRAKLARKEKIMGFGHRVYRHGDSRVPTMKRALERVGTVRDGQRWLDIYQVLAAEMASATGILPNLDFPTGPAYYLMGFDIASFTPIFVMSRITGWTAHIMEQATANALIRPLSAYCGHEQRVLPGTF,soluble
19,MAHHHHHHMGTLEAQTQGPGSMVTANSTVKVGNVTFSNSAPLALIAGPCQMETRDHAFEMAGRLKEMTDKLGIGLVYKSSFDKANRTSLKAARGIGLEKALEVFSDLKKEYGFPVLTDIHTEEQCAAVAPVVDVLQIPAFLCRQTDLLIAAARTGRVVNVKKGQFLAPWDMKNVLAKITESGNPNVLATERGVSFGYNTLVSDMRALPIMAGLGAPVIFDATHSVQQPGGQGGSTGGQREFVETLARAAVAVGVAGFFIETHEDPDNAPSDGPNMVPIDKMPALLEKLMAFDRIAKAL,soluble
20,MAHHHHHHMGVGFQSKKLQNFCHSGAGEMCALENCIPRWGSFPCNAPGLTPVYELSSFENVELPLIFQKSNIGDLLASTSDSVGQLNGFQARHSNTEGIKSQVSYTSVALSTTNRENLFGWVDCAALPLCSSSTAGASILLVTLLTRESRGKSCMCILDDLVCQLSNGPFNWGCGGDCHDLISISLPSEPRNHAACPIILPIAKLSRKEIWLREAAPKMDVETIIYEGDNQQHLVDDVANGTNAGSCAVMEAGCRPETALGPENVKYGDNESVTQCEVTVDITPSTEPSARCLHFSECTTPVSSNRSFMEPIPLSNMESKALRCRKFDGTSYEVLRRRAHSDALSLILKKYSEHF,not soluble
